# Tested on: HCoV-OC43 gRNA and sgRNA
# Format: binding
molecule,measurement,value
"G3BP2: host protein of the core SARS-CoV-2 RNA interactome (protein, UniProt Q9UN86 2-482, looked up) Ras GTPase-activating …: VMEKPSPLLVGREFVRQYYTLLNKAPEYLHRFYGRNSSYVHGGVDASGKPQEAVYGQNDIHHKVLSLNFSECHTKIRHVDAHATLSDGVVVQVMGLLSNSGQPERKFMQTFVLAPEGSVPNKFYVHNDMFRYEDEVFGDSEPELDEESEDEVEEEQEERQPSPEPVQENANSGYYEAHPVTNGIEEPLEESSHEPEPEPESETKTEELKPQVEEKNLEELEEKSTTPPPAEPVSLPQEPPKAFSWASVTSKNLPPSGTVSSSGIPPHVKAPVSQPRVEAKPEVQSQPPRVREQRPRERPGFPPRGPRPGRGDMEQNDSDNRRIIRYPDSHQLFVGNLPHDIDENELKEFFMSFGNVVELRINTKGVGGKLPNFGFVVFDDSEPVQRILIAKPIMFRGEVRLNVEEKKTRAARERETRGGGDDRRDIRRNDRGPGGPRGIVGGGMMRDRDGRGPPPRGGMAQKLGSGRGTGQMEGRFTGQRR","background (unweighted spectral count, no-probe control)",1
same,target (unweighted spectral count),4
same,"target (unweighted spectral count, OC43 Probe II capture)",4
same,"target (unweighted spectral count, OC43 Probe II)",9

# — patent US20230407373A1 (priority 2020, published 2023)
